Measurements from US20250177546A1 (SANYOU BIOPHARMACEUTICALS, published 2025).

What was measured:
[1] = target: T1, huROR1-His (human ROR1 ECD AA30-406 with C-terminal His tag, made in house) (human, UniProt Q01973 30-406); experiment: Gator (BLI) Advanced Kinetics; antibody 30 nM, huROR1-His 480-7.5 nM
T1 construct: range 30-406; Expressed in HEK293; also called antigen protein huROR1-His; not shown: C-terminal His tag
Procedure: First, Q buffer was prepared with PBS (10 mM pH7.4) (IgG-free, purchased from Jackson ImmunoResearch Lab)+0.02% Tween 20 (purchased from thermo)+0.2% BSA (purchased from source culture), and the stock solution of the test antibody was diluted with the prepared Q buffer to a working solution with a final concentration of 30 nM, the stock solution of the antigen protein huROR1-His was prepared with Q buffer into a working solution with multiple dilutions (480, 240, 120, 60, 30, 15, 7.5 nM), and detection and analysis was then performed with Gator instrument and its accompanying software, selecting the Advanced Kinetics experimental mode is used.

[2] = target: T1, huROR1-His (human ROR1 ECD AA30-406 …); experiment: ELISA, huROR1-His coated at 2 µg/mL, goat anti-human Fc-HRP, OD450
Procedure: (§1) 96-well ELISA plate was coated with 2 μg/mL huROR1-His (30 μL/well) at 4° C. overnight. The next day, the plate was washed three times with PBST and then blocked with 5% skim milk for 2 h. […] After washing with PBST for three times, the secondary antibody Goat-anti-human Fc-HRP (abcam, ab97225) was added and incubated for 1 h. After incubation, the plate was washed with PBST for 6 times and TMB (SurModics, TMBS-1000-01) was added for color development. According to the color development results, 2 M HCl was added to terminate the reaction, and the data were read at OD450 using a microplate reader (Molecular Devices, SpecterMax 190).

[3] = target: T2, huROR2-His (human ROR2 ECD AA34-403 with C-terminal His tag) (human, UniProt Q01974 34-403); experiment: ELISA, huROR2-His coated at 2 µg/mL, goat anti-human Fc-HRP, OD450
T2 construct: range 34-403; Expressed in HEK293; also called human ROR2 antigen protein; not shown: C-terminal His tag
T2 sequence (Q01974 34-403 limits assumed): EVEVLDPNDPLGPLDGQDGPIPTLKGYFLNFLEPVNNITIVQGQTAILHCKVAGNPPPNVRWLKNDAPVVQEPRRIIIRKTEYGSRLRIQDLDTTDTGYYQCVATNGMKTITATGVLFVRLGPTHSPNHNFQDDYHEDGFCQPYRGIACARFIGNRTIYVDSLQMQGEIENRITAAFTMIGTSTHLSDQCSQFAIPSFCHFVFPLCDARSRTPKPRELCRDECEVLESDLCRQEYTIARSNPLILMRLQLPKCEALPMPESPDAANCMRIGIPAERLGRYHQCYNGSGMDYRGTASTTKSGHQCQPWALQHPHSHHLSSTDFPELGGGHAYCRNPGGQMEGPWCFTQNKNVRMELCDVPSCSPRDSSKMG
Procedure: as §1, with “huROR2-His” for “huROR1-His”, “TMBS-1000-0)” for “TMBS-1000-01)”

[4] = target: T3, MusROR1-His (mouse ROR1 ECD AA30-406 with C-terminal His tag) (mouse, UniProt Q9Z139 30-406); experiment: ELISA, MusROR1-His coated at 2 µg/mL, goat anti-human Fc-HRP, OD450
T3 construct: range 30-406; Expressed in HEK293; also called mouse ROR1 antigen protein; not shown: C-terminal His tag
T3 sequence (Q9Z139 30-406 limits assumed): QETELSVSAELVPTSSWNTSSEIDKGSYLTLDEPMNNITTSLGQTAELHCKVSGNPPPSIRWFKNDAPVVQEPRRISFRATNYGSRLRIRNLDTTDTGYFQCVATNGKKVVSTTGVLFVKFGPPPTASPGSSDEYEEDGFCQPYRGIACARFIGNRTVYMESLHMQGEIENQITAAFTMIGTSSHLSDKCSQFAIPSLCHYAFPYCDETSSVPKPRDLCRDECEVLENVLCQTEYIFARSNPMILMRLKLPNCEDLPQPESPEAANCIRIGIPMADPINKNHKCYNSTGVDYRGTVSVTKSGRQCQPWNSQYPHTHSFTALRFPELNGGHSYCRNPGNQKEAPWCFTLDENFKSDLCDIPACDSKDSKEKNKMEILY
Procedure: as §1, with “MusROR1-His” for “huROR1-His”

[5] = target: T4, human ROR1 on cells (full-length human ROR1 on huROR1-HEK293 cells; human ROR1 on A549 and HT-29 tumor cells) (human, UniProt Q01973 30-937); experiment: flow cytometry (FACS) on A549 tumor cells, anti-human IgG-Fc secondary antibody, MFI
T4 construct: whole, on cells; also called hROR1-HEK293T; A549 tumor cells
T4 sequence (Q01973 30-937): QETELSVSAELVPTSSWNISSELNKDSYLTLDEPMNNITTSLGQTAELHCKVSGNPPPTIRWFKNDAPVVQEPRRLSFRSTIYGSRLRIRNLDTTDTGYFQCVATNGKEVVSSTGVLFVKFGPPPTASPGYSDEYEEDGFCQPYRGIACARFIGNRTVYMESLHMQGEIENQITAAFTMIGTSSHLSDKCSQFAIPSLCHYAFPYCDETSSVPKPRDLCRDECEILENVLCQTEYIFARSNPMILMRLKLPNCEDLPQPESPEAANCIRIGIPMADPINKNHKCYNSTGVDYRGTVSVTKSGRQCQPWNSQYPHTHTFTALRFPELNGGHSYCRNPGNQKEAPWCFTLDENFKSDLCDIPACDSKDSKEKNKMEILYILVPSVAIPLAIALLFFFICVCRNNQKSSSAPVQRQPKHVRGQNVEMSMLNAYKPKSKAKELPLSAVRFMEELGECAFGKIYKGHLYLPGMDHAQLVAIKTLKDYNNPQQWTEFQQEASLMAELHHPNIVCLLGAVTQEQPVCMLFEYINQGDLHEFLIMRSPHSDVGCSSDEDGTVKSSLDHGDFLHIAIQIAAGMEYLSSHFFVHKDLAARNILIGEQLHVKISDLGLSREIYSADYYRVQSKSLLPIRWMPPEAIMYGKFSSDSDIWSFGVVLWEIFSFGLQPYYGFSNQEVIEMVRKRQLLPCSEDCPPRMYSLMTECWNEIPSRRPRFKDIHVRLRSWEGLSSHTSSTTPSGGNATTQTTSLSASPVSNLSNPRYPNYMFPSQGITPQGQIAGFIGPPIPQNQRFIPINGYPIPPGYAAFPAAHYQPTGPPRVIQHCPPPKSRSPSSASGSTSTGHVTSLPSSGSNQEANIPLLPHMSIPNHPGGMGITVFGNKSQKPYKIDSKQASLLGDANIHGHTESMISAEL
Procedure: (§2) In this example, the binding activity of the antibody was evaluated using two types of cells, huROR1-HEK293 cells over-expressing human ROR1 and A549 tumor cells.
(§3) The specific method was as follows: huROR1-HEK293 cells or A549 cells in the logarithmic growth phase were prepared to a single-cell suspension, the density was adjusted to 1×10⁶ cells/mL, then 100 μL/well cells were added to a 96-well round-bottom plate, centrifuged at 4° C., 300 g, and the supernatant was removed. […] After the incubation, the cell mixture was washed three times and then 100 μL of 1:300 diluted secondary antibody Goat F(ab′)₂ Anti-Human IgG-Fc (abcam, ab98596) was added. The mixture was incubated at 4° C. in the dark for 30 min. After washing three times, the cells were detected by flow cytometry (Beckman, CytoFLEX AOO-1-1102).

[6] = target: T4, human ROR1 on cells (full-length human …); experiment: flow cytometry (FACS) on huROR1-HEK293 cells, anti-human IgG-Fc secondary antibody, MFI
Procedure: as §2, §3

T1 sequence (Q01973 30-406 limits assumed): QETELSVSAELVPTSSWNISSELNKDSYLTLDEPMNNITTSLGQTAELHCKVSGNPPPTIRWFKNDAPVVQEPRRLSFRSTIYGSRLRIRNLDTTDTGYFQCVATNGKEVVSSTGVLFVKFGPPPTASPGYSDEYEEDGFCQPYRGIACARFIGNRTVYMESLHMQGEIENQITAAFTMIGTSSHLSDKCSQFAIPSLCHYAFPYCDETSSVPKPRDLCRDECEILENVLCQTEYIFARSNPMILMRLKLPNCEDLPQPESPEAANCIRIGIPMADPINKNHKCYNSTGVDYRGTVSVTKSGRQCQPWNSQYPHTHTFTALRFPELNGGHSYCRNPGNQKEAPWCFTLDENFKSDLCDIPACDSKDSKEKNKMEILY

Row | Kd [1] [nM] | koff [1] [s⁻¹] | kon [1] [M⁻¹ s⁻¹] | EC50 [2] [ng/mL] | binding result [3] | binding result [4] | EC50 (read off the curve) [5] [µg/mL] | EC50 (read off the curve) [6] [µg/mL] | EC50 (read off the curve) [4] [µg/mL] | Binder
1 | 29.6 | 0.00325 | 110000 | 2.03 | no binding (tested: 1 µg/mL) | binds | ~0.03 | ~0.2 | – | C42 (chimeric antibody) (antibody, human IgG1, kappa, V domains shown, ExpiCHO expression) VH: EVMLVESGGGLVKPGGSLKLSCAASGFTFSNYIMSWVRQTPEKRLEWVATINSGGTNTYYPDSVKGRFTISRDNAKNSLYLQMNSLRSEDTALYYCTRYNGNYVWFAYWGQGTLVTVSA VL: DIVLTQSPAIMSASPGEKVTMTCSASSSVSFIYWYQQKPGSSPRLLIYDTSNLASGVPVRFSGSGSGTSYSLTISRMEAEDAATYYCQQWSNYHFTFGSGTKLEIKR
2 | 1.25 | 0.000377 | 301000 | 5.75 | no binding (tested: 1 µg/mL) | – | ~0.02 | ~0.1 | ~0.04 | B32 (chimeric antibody) (antibody, human IgG1, kappa, V domains shown, ExpiCHO expression) VH: EVKLMESGGGLVKPGGSLKLSCAASGFAFSSYAMSWVRQTPDKRLEWVASINRDVTTYYPDSMKGRFTISRDNARNILYLQMSSLRSEDTAMYYCARGYYYGGGPYWHFDVWGAGTTVTVSS VL: DIQITQSPSSMYASLGERVTITCKASQDINSYLTWFQQKPGKSPKTLIYRANRLVDGVPSRFSGSGSGQDYSLTISSLEYEDMGIYYCLQFDEFPYTFGGGTKLEIKR
3 | 1.86 | 0.000614 | 330000 | 2.12 | no binding (tested: 1 µg/mL) | no binding (tested: 1 µg/mL) | ~0.02 | ~0.1 | – | M78 (chimeric antibody) (antibody, human IgG1, kappa, V domains shown, ExpiCHO expression) VH: EVMLVESGGGLVRPGGSLKLSCAASGFTFSSYAMSWVRQSPEKRLEWVASINRGGTTYYPDSVKGRFTISRDNARDILYLQMSSLRSEDTAIYYCARDYYYGSNLYNGMDYWGQGTSVIVSS VL: DIKITQSPSSMYASLGERVTITCKASQDINSYLSWFQQKPGKSPKTLIYRANRLVDGVPSRFSGSGSGQDYSLTISSLEYEDMGIYYCLQFDEFPYTFGGGTKLEIKR

Continued, binder first:

Row | Binder | Kd [1] [nM] | koff [1] [s⁻¹] | kon [1] [M⁻¹ s⁻¹] | EC50 [2] [ng/mL] | binding result [3] | binding result [4] | EC50 (read off the curve) [5] [µg/mL] | EC50 (read off the curve) [6] [µg/mL] | EC50 (read off the curve) [4] [µg/mL]
4 | M71 (chimeric antibody) (antibody, human IgG1, kappa, V domains shown, ExpiCHO expression) VH: EVMLVESGGGLVKPGGSLKLSCAASGFTFSRYAMSWVRQTPEKRLEWVASINRGGTTYYPDSVKGRFTISRDNARDILYLQMSSLRSEDTAIYYCARDYYYGSSLYNGMDFWGQGTSVIVSS VL: DIQMTQSPSSMYASLGERVTITCKASQDINSYLSWFQQKPGKSPKTLIYRANRLVDGVPSRFSGSGSGQDYSLTISSLESEDMGIYYCLQFDEFPYTFGGGTKLEIKR | 1.54 | 0.00054 | 351000 | 7.7 | no binding (tested: 1 µg/mL) | no binding (tested: 1 µg/mL) | ~0.01 | ~0.08 | –
5 | C77 (chimeric antibody) (antibody, human IgG1, kappa, V domains shown, ExpiCHO expression) VH: EVKLVESGGGLVKPGGSLKLSCAASGFSFSNYAMSWVRQTPEKRLEWVASINSGVTTYYPDSVKGRFTVSRDNARNILYLHMTGLRSEDTAIYYCSRGYYYGGSPYWHFDVWGAGTTVTVSS VL: DIQMTQSPSSMHASLGERVTITCKASQDINNYVSWFQQKPGKSPKTLIYRANRLVDGVPSRFSGSGSGQDYSFTISSLEYEDMGIYYCLQFDEFPYTFGGGTKLEIKR | 2.47 | 0.000774 | 314000 | 6.03 | no binding (tested: 1 µg/mL) | no binding (tested: 1 µg/mL) | ~0.02 | ~0.1 | –
6 | C38 (chimeric antibody) (antibody, human IgG1, kappa, V domains shown, ExpiCHO expression) VH: EVMLVESGGGLVRPGGSLKLSCAASGFTFSSYAMSWVRQTPDKRLEWVASINRDVTTYYPDSVKGRFTISRDNARNILYLQMSSLRSEDTAMYYCARDYYYGSSLYYGMDYWGQGTSVTVSS VL: DIQMTQSPSSMHASLGERVTITCKASQDINNYVSWFQQKPGKSPKTLIYRANRLVDGVPSRFSGSGSGQDYSFTISSLEYEDMGIYYCLQFDEFPYTFGGGTKLEIKR | 1.34 | 0.000422 | 314000 | 3.71 | no binding (tested: 1 µg/mL) | – | ~0.02 | ~0.1 | ~0.03
7 | B74 (chimeric antibody) (antibody, human IgG1, kappa, V domains shown, ExpiCHO expression) VH: EVMLVESGGNLVKPGGSLKLSCAASGFTFSIYAMSWVRQTPEKRLEWVASISGGGTAYYPDSVKGRFTISRDNARNILYLQMSSLRSEDTAIYYCARGYYYGGSPYWHFDVWGAGTTVTVSS VL: DIKMTQSPSSMYASLGERVTITCKASQDINSYLSWFQQKPGKSPKTLIYRANRLVDGVPSRFSGSGSGQDYSLTISSLEYEDIGIYYCLQIDEFPYTFGGGTKLEIKR | 1.44 | 0.000464 | 323000 | 5.13 | no binding (tested: 1 µg/mL) | no binding (tested: 1 µg/mL) | ~0.01 | ~0.2 | –
8 | B34 (chimeric antibody) (antibody, human IgG1, kappa, V domains shown, ExpiCHO expression) VH: EVQLVESGGGLVQPKGSLKLSCAASGFTFSRYAMSWVRQTPEKRLEWVASISTGGSPYYPDSVKGRFTISRDNARNILYLQMSSLKSEDTAMYYCARGYYYNSSPHWYFAVWGAGTSVTVSS VL: DIQMTQSPSSLSASLGERVTITCKASQDINSYLSWFQQKPGKSPKTLIYRANRLVDGVPSRFSGSGSGQDYSLTISSLEYEDMGIYYCLQYDEFPYTFGGGTKLEIKR | 2.52 | 0.000609 | 241000 | 6.28 | no binding (tested: 1 µg/mL) | no binding (tested: 1 µg/mL) | ~0.04 | ~0.2 | –
9 | B39 (chimeric antibody) (antibody, human IgG1, kappa, V domains shown, ExpiCHO expression) VH: EVKLVESGGGLVKPGGSLKLSCAASGFTFSTYAMSWVRQTPEKRLEWVASISTGASTYYPDSVKGRFTISRDNARNILYLQMSSLRSEDTAMYYCAREETTTAALYYAMDYWGQGTSVTVSS VL: DIKITQSPSSMYASLGERVTITCKASQDINNYLSWFQQKPGKSPKTLIYRANRLVDGVPSRFSGSGSGQDYSLTISSLEYEDMGIYYCLQFDEFPYTFGGGTKLEIKR | 4.43 | 0.00135 | 304000 | 5.52 | no binding (tested: 1 µg/mL) | no binding (tested: 1 µg/mL) | ~0.01 | ~0.1 | –
